The record followed here is patent publication US20180010117.

Experiment in all cases: cell_activity
In data set [1] the test system is ZFN SBS#61033 (engineered). To be noted: paired with 61029, K562, 800 ng RNA each; 76.9 at 200 ng; with 61028 73.5.
For data set [2], the system named is ZFN SBS#61035 (engineered). Particulars: paired with 61029, K562, 800 ng RNA each; 63.6 at 200 ng; with 61028 68.7.
Data set [3] deals with ZFN SBS#61041 (engineered). Particulars: paired with 61036, K562, 800 ng RNA each; 14.5 at 200 ng; with 61034 30.1.
The subject of data set [4] is ZFN SBS#61042 (engineered). To be noted: paired with 61036, K562, 800 ng RNA each; 12.9 at 200 ng; with 61034 26.1.
In data set [5] the test system is ZFN SBS#61034 (engineered). To be noted: paired with 61041, K562, 800 ng RNA each; 9.6 at 200 ng; with 61042 26.1.
Data set [6] has as its system ZFN SBS#61036 (engineered). Particulars: paired with 61041, K562, 800 ng RNA each; 14.5 at 200 ng; with 61042 40.6.
For data set [7], the system named is ZFN SBS#61027 (engineered). Particulars: paired with 61024, K562, 800 ng RNA each; 4.5 at 200 ng.
The subject of data set [8] is ZFN SBS#61029 (engineered). To be noted: paired with 61033, K562, 800 ng RNA each; 76.9 at 200 ng; with 61035 80.7.
The subject of data set [9] is ZFN SBS#61028 (engineered). To be noted: paired with 61033, K562, 800 ng RNA each; 54.3 at 200 ng; with 61035 68.7.

In the case of “CCAATAGGGATAGGTATGAGATATTCAC (double strand) [CEP290 site of 61033/61035]”, the activity in [1] worked out at 85.4 % indels; in data set [2], 80.7 % indels.

As to “CCAATAGGGATAGGTATGAGATATTCAC (double strand) [CEP290 site of 61041/61042]”, the activity in [3] turned out to be 43.6 % indels; in data set [4], 40.6 % indels.

For the sequence “CCCCAGTTGTAATTGTGAATATCTCATA (double strand) [CEP290 site of 61034/61036]”, the values for the activity in data set [5] and in [6] were 30.1 % indels and 43.6 % indels, respectively.

Turning to “TAGGGATAGGTATGAGATATTCACAATT (double strand) [CEP290 site of 61027]”, in data set [7], the activity was 27.1 % indels.

In the case of “TGGCCCCAGTTGTAATTGTGAATATCTC (double strand) [CEP290 site of 61028/61029]”, the activity in [8] stood at 85.4 % indels; in [9], 73.5 % indels.
